Results published in US20130108613.

Legend:
[1] = target: oligomeric synthetic human Aβ1-42 preparation
[2] = target: monomeric synthetic human Aβ1-42 peptide

B1: recombinant NIa (nuclear inclusion a) protease of Turnip mosaic virus (TuMV), purified from E. coli (protein)
chain: SNSMFRGLRDYNPISNNICHLTNVSDGASNSLYGVGFGPLILTNRHLFERNNGELVIKSRHGEFVIKNTTQLHLLPIPDRDLLLIRLPKDIPPFPQKLGFRQPEKGERICMVGSNFQTKSITSVVSETSTIMPVENSQFWKHWISTKDGQCGSPMVSTKDGKILGLHSLANFQNSINYFAAFPDDFAEKYLHTIEAHEWVKHWKYNTSAISWGSLNIQASQPSGLFKVSKLISDLDSTAVYAQ
oligomeric Aβ level with NIa pre-incubated with NEM, Western blot (6E10) [1]: This NIa-mediated reduction of oligomeric Aβ was significantly blocked by NEM | oligomeric Aβ remaining after 3 hrs with NIa, densitometry of Western blot (6E10), relative to Aβ only [1]: only 19% of oligomeric Aβ remained | reduction of monomeric Aβ level, densitometry of Western blot (6E10), 3 hrs at 25 °C, without NEM [2]: NIa reduced Aβ levels by 64% in the absence of NEM
